# According to patent EP4223782A1 (dated 2023):
# T1: TGFβR2(-1) frameshift variant (deletion of one adenine in the 10-adenine microsatellite) peptide on … (human)
# T1 peptide: VALMSAMTTSSSQKN
# Experiments:
# [1] = molecular target: T1, TGFβR2(-1) frameshift variant (deletion …); assay: IFNγ ELISA after 16 h; transduced human CD4+ T cells with BSM cells pulsed with decreasing amounts of peptide; lower bound of the printed range; full-length, on cells
# [2] = molecular target: TGFβR2(-1) peptide … presented on HLA-DRA/HLA-DRB1*04:01 (human); assay: cell-based or functional assay
# [3] = molecular target: T1, TGFβR2(-1) frameshift variant (deletion …); assay: IFNγ ELISA after 16 h; transduced human CD4+ T cells with BSM cells pulsed with decreasing amounts of peptide; upper bound of the printed range; full-length, on cells
EC50 of peptide [1],"lowest peptide concentration recognized (IFNy ELISA, BSM cells loaded with different concentrations of peptide) [2]",EC50 of peptide [3],Binder
> 1 nM,1 nM,< 10 nM,"TCR1414_2 (TCR, V domains shown) Valpha: GIQVEQSPPDLILQEGANSTLRCNFSDSVNNLQWFHQNPWGQLINLFYIPSGTKQNGRLSATTVATERYSLLYISSSQTTDSGVYFCAAPSGNTPLVFGKGTRLSVIA Vbeta: DVKVTQSSRYLVKRTGEKVFLECVQDMDHENMFWYRQDPGLGLRLIYFSYDVKMKEKGDIPEGYSVSREKKERFSLILESASTNQTSMYLCASRVSGANVLTFGAGSRLTVL"
> 1 nM,1 nM,< 10 nM,"TCR1414_1 (TCR, V domains shown) Valpha: KQEVTQIPAALSVPEGENLVLNCSFTDSAIYNLQWFRQDPGKGLTSLLLIQSSQREQTSGRLNASLDKSSGRSTLYIAASQPGDSATYLCAVKSGAGSYQLTFGKGTKLSVIP Vbeta: NAGVMQNPRHLVRRRGQEARLRCSPMKGHSHVYWYRQLPEEGLKFMVYLQKENIIDESGMPKERFSAEFPKEGPSILRIQQVVRGDSAAYFCASSPFQETQYFGPGTRLLVL"
